Test results reported in the RNAGym collection of RNA variant scans (doi:10.7554/elife.90254).

B1: LINE1-full (parent)
chain: UACGUAGGUGGUUUUCCCCUGAUAGUGCUAAGGGGGCCUGGAAGUUUGGACUGGGCAGAGCUCAACACAGCGUGGCAAAGUGGCUGUGGCUAGACUGCCUCUCUGGAUUCCUCGUCACUCAGCAGGGCAUCUCUGAGAGAAAUGCC

Variants of: B1
Experiment: self-cleavage, relative activity (ratio to wild type); higher = more cleavage; in vitro, sequencing; the parent is a self-cleaving ribozyme

| Variant | self-cleavage |
| --- | --- |
| U45G G88A | 0.06 |
| U85A A107U | 0.08 |
| C76U A142C | 0.92 |
| G21A U100C | 1.72 |
| U9C A117G | 1.53 |
| U85A G127A | 0.06 |
| U20A A138G | 1.27 |
| U45C C84U | 0.04 |
| G32A A141G | 1.95 |
| G53A U115C | 1.07 |
| G74A U134C | 1.1 |
| U47C U73G | 1.38 |
| U85C A140G | 0.15 |
| C38U G144A | 1.36 |
| U46A U96C | 0.19 |
| A22G G106U | 0.73 |
| U12A C113U | 1.36 |
| U15C U102C | 1.46 |
| U91C A138U | 0.6 |
| A121U A138C | 1.56 |
| U45A U109C | 1.4 |
| U9A A142G | 1.13 |
| C63A A142U | 0.05 |
| U9A U23A | 0.36 |

| Variant | self-cleavage |
| --- | --- |
| U39C A78G | 0.95 |
| U47A C99A | 0.48 |
| U20G U29A | 0.8 |
| U20G U29C | 1.36 |
| A43G A142C | 1 |
| A65G U134A | 0.04 |
| C113U A129G | 1.34 |
| U104A C116U | 0.9 |
| A67C | 0.06 |
| U46C G48C | 1.2 |
| A77C G114A | 0.63 |
| C63U U85G | 0.1 |
| U104C C133U | 1.72 |
| A42G G144U | 1.65 |
| U47A A117C | 1.32 |
| G58A A94G | 0 |
| U20C C133U | 1.16 |
| G144U | 1.58 |
| U45A G105A | 1.56 |
| A78C A136G | 2.92 |
| A42C U91C | 0.4 |
| U29C G89A | 0.06 |
| A59G U102C | 0.1 |
| G34U A124U | 1.6 |

| Variant | self-cleavage |
| --- | --- |
| A59G G135A | 0.08 |
| G53U A141G | 1.58 |
| C51U A67G | 0.5 |
| U14C G58A | 0.06 |
| U12A U102C | 1.42 |
| G126A A136U | 1.41 |
| G34U U46A | 1.32 |
| A31U G88U | 0.15 |
| U119A G122C | 1.65 |
| C103U A142C | 1.23 |
| U5A U13C | 0.99 |
| U14G U96C | 0 |
| C76U U85C | 0.36 |
| U119A U130C | 1.85 |
| A22G A92U | 0.79 |
| A6G U85A | 0 |
| C66U C111U | 0.04 |
| U102A A140U | 1.42 |
| U62A U102A | 0.01 |
| A65G G89C | 0.03 |
| G34A G54A | 0.78 |
| U39C A136U | 1.25 |
| U20C C66U | 0 |
| U13C G40U | 1.87 |

| Variant | self-cleavage |
| --- | --- |
| A30U G35A | 1.07 |
| G126C G137A | 1.45 |
| U14C A31G | 1.24 |
| G32A A69G | 0.37 |
| A42U A79G | 1.16 |
| A30G U132G | 1.93 |
| U15A G58A | 0.09 |
| C84U A124G | 0.11 |
| A42U U132A | 1.02 |
| A69U C131U | 0.03 |
| G36C U87A | 0.14 |
| U12C G72U | 1.13 |
| A57G U115A | 0.81 |
| U26G U87A | 0 |
| A43U U62C | 0.06 |
| A22G C51A | 0.4 |
| U115A A124U | 1.79 |
| A22G U100G | 1.75 |
| A67U U112A | 0.13 |
| A69U U73G | 0.31 |
| A65U A124U | 0.18 |
| U39A A124U | 1.61 |
| A94U U143A | 0.21 |
| G53A A77G | 1.82 |

| Variant | self-cleavage |
| --- | --- |
| U62A U91C | 0.04 |
| G33A A136G | 1.35 |
| A136G U143A | 1.34 |
| A92U G139A | 0.76 |
| U45A G72A | 0.95 |
| A43U G72A | 1.38 |
| G58U U62A | 0.02 |
| A6U G41A | 1.52 |
| A129G U132C | 1.58 |
| G4A U87A | 0.12 |
| U9C U85G | 0.27 |
| U14C A117G | 1.22 |
| U9A U100C | 1.18 |
| G35U A65U | 0.12 |
| U52C U143A | 1.84 |
| A30G U119A | 1.01 |
| A59C A142G | 0.57 |
| U9C U46C | 1.08 |
| A138U | 1.1 |
| A43U A69G | 0.59 |
| A57U A67U | 0.02 |
| A57G C128U | 0.79 |
| A2G A78G | 1.04 |
| U14A U87C | 0.12 |

| Variant | self-cleavage |
| --- | --- |
| U23A A43G | 1.27 |
| U15G A79G | 0 |
| A6U U109A | 0.99 |
| U102C G122A | 1.66 |
| U47A G125C | 1.49 |
| C68U C123G | 0.1 |
| U5C C38A | 1.79 |
| C103U U115C | 1.51 |
| C103U U115A | 1.72 |
| A30U U134C | 1.22 |
| U85A C98G | 0.28 |
| U13A | 0.98 |
| A24G U102G | 0.54 |
| A30G A57G | 1.39 |
| U23C A94G | 0.37 |
| U5C U13C | 0.87 |
| U12C A30U | 0.53 |
| G89A U130C | 0.02 |
| A117C G144A | 1.79 |
| U9A C71A | 0.6 |
| U23C C95U | 0.22 |
| G53A A129G | 1.4 |
| U91G A138G | 0 |
| G8A U14C | 1.32 |

| Variant | self-cleavage |
| --- | --- |
| A77C A136G | 1.06 |
| A92U A107G | 0.94 |
| A117U A138U | 1.16 |
| A77G U81C | 2.1 |
| A2U | 0.98 |
| C76G A78G | 1.7 |
| A64G C84A | 0.05 |
| U13C U39C | 1.08 |
| A92U A140G | 0.53 |
| U81C U100A | 1.05 |
| U112G A142G | 1.27 |
| U73A G88A | 0.07 |
| U20G A140U | 1.23 |
| G54A A67G | 0.12 |
| G4A A43U | 1.21 |
| U9G A141U | 0.52 |
| G72U A140G | 0.6 |
| A77C U112C | 1.84 |
| A31G A65G | 0 |
| A65G U87C | 0.16 |
| A50U U81G | 0.74 |
| G86A G126U | 0.02 |
| G83A U104C | 0.95 |
